The assay addresses Enc-I3-01-MhIHL-V54L (engineered ketohydroxyglutarate aldolase from T. maritima fused at its C terminus to the (+)-γ-lactamase mutant MhIHL-V54L from Microbacterium hydrocarbonoxydans) (Thermotoga maritima | Microbacterium hydrocarbonoxydans). Kind of assay: negative-stain transmission electron microscopy; purified protein at 1.33 mg/mL adsorbed onto copper grids, stained with 3% uranyl acetate.

As usually defined, the stoichiometry N is a count of units in the complex or per binding partner. Regarding “Enc-I3-01-MhIHL-V54L (engineered ketohydroxyglutarate aldolase from T. maritima fused at its C terminus to the (+)-γ-lactamase mutant MhIHL-V54L from Microbacterium hydrocarbonoxydans)”, the stoichiometry N is 60 subunits.
